Source: patent US20090156485A1

Legend:
[1] = target: human hair (hair keratin) (human); assay: quantitative hair binding test, after 10% strength SDS treatment
[2] = target: human hair (hair keratin) (human); assay: quantitative hair binding test, anti-polyHis peroxidase conjugate, TMB
[3] = target: human skin (skin keratin) (human); assay: quantitative skin binding test on human keratinocytes, after 10% strength SDS treatment
[4] = target: human skin (skin keratin) (human); assay: quantitative skin binding test on human keratinocytes in microtiter plates, anti-His antibody, TMB

Binder | Absorption at 405 nm (A405 nm (standardized to the surface)) [1] | Absorption at 405 nm (A405 nm (standardized to the surface)) [2] | Absorption at 405 nm (A405 nm (standardized to the surface)) [3] | Absorption at 405 nm (A405 nm (standardized to the surface)) [4]
KBD-D (keratin-binding domain of human plakophilin, SEQ ID No.: 168) (protein) MRGSHHHHHHGSACELGTMNHSPLKTALAYECFQDQDNSTLALPSDQKMKTGTSGRQRVQEQVMMTVKRQKSKSSQSSTLSHSNRGSMYDGLADNYNYGTTSRSSYYSKFQAGNGSWGYPIYNGTLKREPDNRRFSSYSQMENWSRHYPRGSCNTTGAGSDICFMQKIKASRSEPDLYCDPRGTLRKGTLGSKGQKTTQNRYSFYSTCSGQKAIKKCPVRPPSCASKQDPVYIPPISCNKDLSFGHSRASSKICSEDIECSGLTIPKAVQYLSSQDEKYQAIGAYYIQHTCFQDESAKQQVYQLGGICKLVDLLRSPNQNVQQAAAGALRNLVFRSTTNKLETRRQNGIREAVSLLRRTGNAEIQKQLTGLLWNLSSTDELKEELIADALPVLADRVIIPFSGWCDGNSNMSREVVDPEVFFNATGCLRNLSSADAGRQTMRNYSGLIDSLMAYVQNCVAASRCDDKSVENCMCVLHNLSYRLDAEVPTRYRQLEYNARNAYTEKSSTGCFSNKSDKMMNNNYDCPLPEEETNPKGSGWLYHSDAIRTYLNLMGKSKKDATLEACAGALQNLTASKGLMSSGMSQLIGLKEKGLPQIARLLQSGNSDVVRSGASLLSNMSRHPLLHRVMGNQVFPEVTRLLTSHTGNTSNSEDILSSACYTVRNLMASQPQLAKQYFSSSMLNNIINLCRSSASPKAAEAARLLLSDMWSSKELQGVLRQQGFDRNMLGTLAGANSLRNFTSRF | 0.62 | 0.88 | 3.15 | 3.69
KBD-B (keratin-binding domain B of human desmoplakin, SEQ ID No.: 166) (protein) MRGSHHHHHHGSACELEPHTGLLLLSVQKRSMSFQGIRQPVTVTELVDSGILRPSTVNELESGQISYDEVGERIKDFLQGSSCIAGIYNETTKQKLGIYEAMKIGLVRPGTALELLEAQAATGFIVDPVSNLRLPVEEAYKRGLVGIEFKEKLLSAERAVTGYNDPETGNIISLFQAMNKELIEKGHGIRLLEAQIATGGIIDPKESHRLPVDIAYKRGYFNEELSEILSDPSDDTKGFFDPNTEENLTYLQLKERCIKDEETGLCLLPLKEKKKQVQTSQKNTLRKRRVVIVDPETNKEMSVQEGVDLQPSLIS |  |  | 0.185 | 0.93
